# Article PMC9482650, “Quantitative fragmentomics allow affinity mapping of interactomes” (Nature Communications, 2022)
# Legend:
# Assay in all cases: holdup assay
# Parameters in all cases: key: below the threshold = too weak to quantify, mostly under pKd 3.1 to 4
# SYNJ2BP, P57105 = target: T1, SYNJ2BP, P57105
# T1 sequence (P57105 8-110, limits assumed, looked up): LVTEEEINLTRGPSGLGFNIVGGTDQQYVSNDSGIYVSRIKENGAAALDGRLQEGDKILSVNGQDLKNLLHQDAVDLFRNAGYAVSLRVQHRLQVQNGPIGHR
# APBA3_2, O96018 = target: T2, APBA3_2, O96018; details: plain residues with an end cap or a label only (N-terminal biotin on a linker: ttds)
# T2 sequence (O96018 480-570, limits assumed, looked up): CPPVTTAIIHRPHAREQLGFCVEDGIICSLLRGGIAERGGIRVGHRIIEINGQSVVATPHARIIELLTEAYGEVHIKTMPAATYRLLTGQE
# MAGI2_1, Q86UL8 = target: T3, MAGI2_1, Q86UL8; details: plain residues with an end cap or a label only (N-terminal biotin on a linker: ttds)
# T3 sequence (Q86UL8 12-111, limits assumed, looked up): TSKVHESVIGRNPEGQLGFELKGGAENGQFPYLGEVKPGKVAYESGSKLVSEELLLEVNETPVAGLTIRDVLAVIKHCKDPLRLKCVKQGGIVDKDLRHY
# MAGIX, Q9H6Y5 = details: plain residues with an end cap or a label only (N-terminal biotin on a linker: ttds)
# MPDZ_11, O75970 = target: T4, MPDZ_11, O75970; details: plain residues with an end cap or a label only (N-terminal biotin on a linker: ttds)
# T4 sequence (O75970 1720-1817, limits assumed, looked up): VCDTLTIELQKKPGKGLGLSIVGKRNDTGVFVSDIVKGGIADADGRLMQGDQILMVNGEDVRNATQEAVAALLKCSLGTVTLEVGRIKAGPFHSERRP
# MPDZ_3, O75970 = target: T5, MPDZ_3, O75970; details: plain residues with an end cap or a label only (N-terminal biotin on a linker: ttds)
# T5 sequence (O75970 372-473, limits assumed, looked up): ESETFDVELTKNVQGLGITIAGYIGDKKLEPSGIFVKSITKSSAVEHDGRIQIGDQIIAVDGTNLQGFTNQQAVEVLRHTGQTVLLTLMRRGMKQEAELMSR
# NHERF1_1, O14745 = target: T6, NHERF1_1, O14745; details: plain residues with an end cap or a label only (N-terminal biotin on a linker: ttds)
# T6 sequence (O14745 9-104, limits assumed, looked up): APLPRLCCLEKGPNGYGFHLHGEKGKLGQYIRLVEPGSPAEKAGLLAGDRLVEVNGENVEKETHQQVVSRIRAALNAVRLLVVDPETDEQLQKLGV
# NHERF4_3, Q86UT5 = details: plain residues with an end cap or a label only (N-terminal biotin on a linker: ttds)
# PDZD2_1, O15018 = target: T7, PDZD2_1, O15018; details: plain residues with an end cap or a label only (N-terminal biotin on a linker: ttds)
# T7 sequence (O15018 80-192, limits assumed, looked up): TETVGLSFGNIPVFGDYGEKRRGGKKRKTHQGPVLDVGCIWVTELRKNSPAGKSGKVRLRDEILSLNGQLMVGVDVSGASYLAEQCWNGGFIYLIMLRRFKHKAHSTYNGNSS
# PDZD2_4, O15018 = target: T8, PDZD2_4, O15018; details: plain residues with an end cap or a label only (N-terminal biotin on a linker: ttds)
# T8 sequence (O15018 723-823, limits assumed, looked up): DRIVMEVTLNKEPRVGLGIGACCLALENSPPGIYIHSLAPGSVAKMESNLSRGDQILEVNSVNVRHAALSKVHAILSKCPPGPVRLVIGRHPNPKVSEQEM
# PDZD2_5, O15018 = target: T9, PDZD2_5, O15018; details: plain residues with an end cap or a label only (N-terminal biotin on a linker: ttds)
# T9 sequence (O15018 2617-2716, limits assumed, looked up): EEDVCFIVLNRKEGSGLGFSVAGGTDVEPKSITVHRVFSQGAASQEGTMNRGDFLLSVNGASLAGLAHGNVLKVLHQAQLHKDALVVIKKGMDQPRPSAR
# PDZD2_6, O15018 = target: T10, PDZD2_6, O15018; details: plain residues with an end cap or a label only (N-terminal biotin on a linker: ttds)
# T10 sequence (O15018 2745-2839, limits assumed, looked up): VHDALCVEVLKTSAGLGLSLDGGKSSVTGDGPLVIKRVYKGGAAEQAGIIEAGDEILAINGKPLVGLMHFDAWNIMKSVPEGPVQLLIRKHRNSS
# PDZD4, Q76G19 = target: T11, PDZD4, Q76G19; details: plain residues with an end cap or a label only (N-terminal biotin on a linker: ttds)
# T11 sequence (Q76G19 125-224, limits assumed, looked up): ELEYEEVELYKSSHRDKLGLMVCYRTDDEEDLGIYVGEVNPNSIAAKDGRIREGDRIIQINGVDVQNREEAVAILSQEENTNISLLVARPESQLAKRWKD
# SCRIB_4, Q14160 = details: plain residues with an end cap or a label only (N-terminal biotin on a linker: ttds)
# SHROOM2, Q13796 = target: T12, SHROOM2, Q13796; details: plain residues with an end cap or a label only (N-terminal biotin on a linker: ttds)
# T12 sequence (Q13796 21-118, limits assumed, looked up): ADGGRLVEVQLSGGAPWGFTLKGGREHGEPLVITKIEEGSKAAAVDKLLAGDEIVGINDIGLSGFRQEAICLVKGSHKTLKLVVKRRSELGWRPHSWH
# SYNPO2L, Q9H987 = target: T13, SYNPO2L, Q9H987; details: plain residues with an end cap or a label only (N-terminal biotin on a linker: ttds)
# T13 sequence (Q9H987 1-98, limits assumed, looked up): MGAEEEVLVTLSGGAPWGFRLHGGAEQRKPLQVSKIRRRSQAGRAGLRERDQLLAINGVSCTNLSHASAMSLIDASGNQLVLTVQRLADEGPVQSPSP
# TJP1_1, Q07157 = details: plain residues with an end cap or a label only (N-terminal biotin on a linker: ttds)
# TJP3_1, O95049 = target: T14, TJP3_1, O95049; details: plain residues with an end cap or a label only (N-terminal biotin on a linker: ttds)
# T14 sequence (O95049 6-103, limits assumed, looked up): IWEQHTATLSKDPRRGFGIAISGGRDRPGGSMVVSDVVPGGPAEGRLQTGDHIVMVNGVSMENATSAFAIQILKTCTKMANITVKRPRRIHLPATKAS
# [1] = plain residues with an end cap or a label only (N-terminal biotin on a linker: ado-ado)
# [2] = plain residues with an end cap or a label only (N-terminal biotin on a linker: ttds)
# [3] = plain residues with an end cap or a label only (N-terminal biotin on a linker: ahx)
# MAGIX, Q9H6Y5, sequence (Q9H6Y5 118-211): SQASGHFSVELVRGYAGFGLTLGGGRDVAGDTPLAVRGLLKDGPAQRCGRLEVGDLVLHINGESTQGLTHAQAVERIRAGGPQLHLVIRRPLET
# SCRIB_4, Q14160, sequence (Q14160 1095-1204): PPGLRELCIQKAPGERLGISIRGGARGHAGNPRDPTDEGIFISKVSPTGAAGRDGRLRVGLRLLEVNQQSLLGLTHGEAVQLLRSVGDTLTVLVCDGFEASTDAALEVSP
# NHERF4_3, Q86UT5, sequence (Q86UT5 325-412): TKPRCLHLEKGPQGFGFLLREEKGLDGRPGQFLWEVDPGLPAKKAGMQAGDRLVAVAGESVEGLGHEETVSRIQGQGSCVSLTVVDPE
# TJP1_1, Q07157, sequence (Q07157 18-120): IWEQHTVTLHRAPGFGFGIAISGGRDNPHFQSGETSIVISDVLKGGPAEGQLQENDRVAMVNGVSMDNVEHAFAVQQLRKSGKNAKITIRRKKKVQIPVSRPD
binder,measurement,setting,value
"SVVSERISSV [HTR2C, P28335]",pKd,"SYNJ2BP, P57105; [1]",4.46
"SPLHSLETSL [ATP2B1, P20020]",pKd,"SYNJ2BP, P57105; [2]",4.91
"GFGEERESIL [KIDINS220, Q9ULH0]",pKd,"SYNJ2BP, P57105; [1]",3.95
"LHLHGTGIQV [EPHA7, Q15375]",pKd,"SYNJ2BP, P57105; [1]",3.7
"TGDTLEKFVEGL [CBP, Q92793]",pKd,"APBA3_2, O96018",3.95
same,pKd,"MAGI2_1, Q86UL8",below the threshold
same,pKd,"MAGIX, Q9H6Y5",below the threshold
same,pKd,"MPDZ_11, O75970",below the threshold
same,pKd,"MPDZ_3, O75970",4.11
same,pKd,"NHERF1_1, O14745",4.09
same,pKd,"NHERF4_3, Q86UT5",3.86
same,pKd,"PDZD2_1, O15018",below the threshold
same,pKd,"PDZD2_4, O15018",below the threshold
same,pKd,"PDZD2_5, O15018",3.8
same,pKd,"PDZD2_6, O15018",3.86
same,pKd,"PDZD4, Q76G19",below the threshold
same,pKd,"SCRIB_4, Q14160",below the threshold
same,pKd,"SHROOM2, Q13796",3.83
same,pKd,"SYNJ2BP, P57105; [2]",3.55
same,pKd,"SYNPO2L, Q9H987",below the threshold
same,pKd,"TJP1_1, Q07157",below the threshold
same,pKd,"TJP3_1, O95049",below the threshold
"LDSQIQETSI [MAP4, P27816]",pKd,"SYNJ2BP, P57105; [2]",4.95
"TIVSWPGTFL [LNX1, Q8TBB1]",pKd,"SYNJ2BP, P57105; [3]",4.49
"TEEEVQDTRL [CFTR, P13569]",pKd,"SYNJ2BP, P57105; [2]",below the threshold
"SRRPRTETQV [HPV31-E6, P17386]",pKd,"SYNJ2BP, P57105; [2]",5.41
"CNTVTVETVV [MAS1, P04201]",pKd,"SYNJ2BP, P57105; [2]",3.98
"EDEDEQVSAV [RAPGEF2, Q9Y4G8]",pKd,"SYNJ2BP, P57105; [3]",3.49
"EEPEERHTEL [CES2, O00748]",pKd,"SYNJ2BP, P57105; [1]",4.18
"GIFPTLTSPL [SHROOM3, Q8TF72]",pKd,"SYNJ2BP, P57105; [3]",below the threshold
"KTSAHHATFV [RGS12, O14924]",pKd,"SYNJ2BP, P57105; [3]",4.26
"FVHPILQSAV [PRKCA, P17252]",pKd,"SYNJ2BP, P57105; [1]",5.31
"SSSNSEDTEM [NHERF3, Q5T2W1]",pKd,"SYNJ2BP, P57105; [3]",below the threshold
"QKNKDKEYYV [NRXN3_rs746444206, Q9Y4C0]",pKd,"SYNJ2BP, P57105; [1]",below the threshold
"ELIQDTSTSFSTTREW [ARAP3_int, Q8WWN8]",pKd,"SYNJ2BP, P57105; plain residues with an end cap or a label only (N-terminal biotin on a linker: gsgsgs; C-terminal amide)",below the threshold
"RGGFGRQTQI [NCBP2L, A6PVI3]",pKd,"SYNJ2BP, P57105; [1]",4.18
"VNKVWDQSSV [CIT, O14578]",pKd,"SYNJ2BP, P57105; [2]",4.65
"KKNKDKEYYV [NRXN1, Q9ULB1]",pKd,"SYNJ2BP, P57105; [3]",below the threshold
"QGRWDHETIV [TMEM215, Q68D42]",pKd,"SYNJ2BP, P57105; [3]",4.14
"EDLTKNHDEL [RCN1, Q15293]",pKd,"SYNJ2BP, P57105; [1]",below the threshold
"TETASVCTKV [SLC23A1, Q9UHI7]",pKd,"SYNJ2BP, P57105; [1]",below the threshold
"PKRPFVESNV [TANC2, Q9HCD6]",pKd,"SYNJ2BP, P57105; [2]",5.08
"HSGSYLVTSV [APC, P25054]",pKd,"SYNJ2BP, P57105; [3]",4.81
"GKKSVKHSKI [ACOT6, Q3I5F7]",pKd,"SYNJ2BP, P57105; [1]",below the threshold
"RNCSTNDSLL [ADRB2, P07550]",pKd,"SYNJ2BP, P57105; [3]",below the threshold
"DPRNTQTSQI [ABRAXAS2, Q15018]",pKd,"SYNJ2BP, P57105; [2]",3.68
"DEDQHTQITKV [PTEN, P60484]",pKd,"APBA3_2, O96018",below the threshold
same,pKd,"MAGI2_1, Q86UL8",below the threshold
same,pKd,"MAGIX, Q9H6Y5",below the threshold
same,pKd,"MPDZ_11, O75970",below the threshold
same,pKd,"MPDZ_3, O75970",below the threshold
same,pKd,"NHERF1_1, O14745",4.46
same,pKd,"NHERF4_3, Q86UT5",below the threshold
same,pKd,"PDZD2_1, O15018",below the threshold
same,pKd,"PDZD2_4, O15018",below the threshold
same,pKd,"PDZD2_5, O15018",below the threshold
same,pKd,"PDZD2_6, O15018",3.56
same,pKd,"PDZD4, Q76G19",below the threshold
same,pKd,"SCRIB_4, Q14160",below the threshold
same,pKd,"SHROOM2, Q13796",below the threshold
same,pKd,"SYNJ2BP, P57105; [2]",3.65
same,pKd,"SYNPO2L, Q9H987",below the threshold
same,pKd,"TJP1_1, Q07157",3.58
same,pKd,"TJP3_1, O95049",below the threshold
"LCALPKVTTV [AGMAT, Q9BSE5]",pKd,"SYNJ2BP, P57105; [2]",4.35
"QFQYAKESYI [TAGAP, Q8N103]",pKd,"SYNJ2BP, P57105; [2]",4.71
"EKLSSIESDV [GRIN2B, Q13224]",pKd,"SYNJ2BP, P57105; [3]",4.4
"NQLAWFDTDL [CTNNB1, P35222]",pKd,"SYNJ2BP, P57105; [2]",4.09
"GGPKEEESPV [SLC16A1, P53985]",pKd,"SYNJ2BP, P57105; [2]",4.32
